The target in assay [1] is recombinant human VEGF-A165 (human) (UniProt P15692). Briefly: ELISA on plate-coated recombinant human VEGF-A165; anti-human IgG1-Fc-HRP, OD450.
For assay [2], the target named is T1, recombinant human PIGF (human) (UniProt P49763).
T1 sequence (looked up): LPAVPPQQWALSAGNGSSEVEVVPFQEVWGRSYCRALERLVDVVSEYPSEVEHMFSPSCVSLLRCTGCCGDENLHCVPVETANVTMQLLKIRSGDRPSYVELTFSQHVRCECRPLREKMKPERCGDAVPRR
Put plainly: ELISA on plate-coated recombinant human PIGF; anti-human IgG1-Fc-HRP, OD450. For orientation: In an ELISA, binding on a coated surface is turned into a signal by an enzyme label.

Assay [3] addresses T1, recombinant human PIGF (human). The assay is described as above. This is another data set of the same source.
Assay [4] concerns the target T2, recombinant human VEGF-B167 (human) (UniProt P49765).
T2 sequence (looked up): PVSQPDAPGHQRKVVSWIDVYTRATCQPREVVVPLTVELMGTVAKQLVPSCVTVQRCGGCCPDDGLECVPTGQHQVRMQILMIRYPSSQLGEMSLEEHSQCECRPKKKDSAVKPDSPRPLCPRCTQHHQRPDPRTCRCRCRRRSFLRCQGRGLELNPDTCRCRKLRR
Briefly: ELISA on plate-coated recombinant human VEGF-B167; anti-human IgG1-Fc-HRP, OD450.

In assay [5] the target is recombinant human VEGF-A165 (human) (UniProt P15692). Briefly: SPR Biacore, 25 C; test antibody captured by anti-human IgG (Fc) on CM5 chip, target protein as analyte; 1:1 model. (In general: Surface plasmon resonance follows binding to a sensor surface in real time, without labels.)
The target of assay [6] is T1, recombinant human PIGF (human). Described as above.
For assay [7], the target named is T2, recombinant human VEGF-B167 (human). Described as above.
Assay [8] addresses recombinant human VEGF-A165 (human) (UniProt P15692).
Assay [9] has the same target. The source holds these as a separate data set.
Assay [10] has the same target. This is another data set of the same source.
For assay [11] the target is unchanged. Put plainly: SPR Biacore, 25 C; test antibody captured by anti-human IgG (Fc) on CM5 chip, target protein as analyte; 1:1 model. The source holds these as a separate data set.
Assay [12] addresses T1, recombinant human PIGF (human). The description is as above. This is another data set of the same source.
Assay [13] has as its target T2, recombinant human VEGF-B167 (human). The description is as above. The source holds these as a separate data set.
The target in assay [14] is recombinant human Ang-2 (human) (UniProt O15123). Put plainly: ELISA on plate-coated recombinant human Ang-2; anti-human IgG1-Fc-HRP, OD450.
For assay [15], the target named is human IL-6R overexpressed on engineered CHO-S cells (human) (UniProt P08887). Put plainly: FACS competition: antibody with biotinylated human IL-6 and CHO-S cells overexpressing human IL-6R; blocked: IL-6 binding to IL-6R.

pEC50, pIC50, pKd: −log10 of the molar value. Like-named read-outs stand apart in the source and are kept apart here.

These results are taken from patent US20260265359A1.

Aflibercept (Fc fusion), sequence (chain): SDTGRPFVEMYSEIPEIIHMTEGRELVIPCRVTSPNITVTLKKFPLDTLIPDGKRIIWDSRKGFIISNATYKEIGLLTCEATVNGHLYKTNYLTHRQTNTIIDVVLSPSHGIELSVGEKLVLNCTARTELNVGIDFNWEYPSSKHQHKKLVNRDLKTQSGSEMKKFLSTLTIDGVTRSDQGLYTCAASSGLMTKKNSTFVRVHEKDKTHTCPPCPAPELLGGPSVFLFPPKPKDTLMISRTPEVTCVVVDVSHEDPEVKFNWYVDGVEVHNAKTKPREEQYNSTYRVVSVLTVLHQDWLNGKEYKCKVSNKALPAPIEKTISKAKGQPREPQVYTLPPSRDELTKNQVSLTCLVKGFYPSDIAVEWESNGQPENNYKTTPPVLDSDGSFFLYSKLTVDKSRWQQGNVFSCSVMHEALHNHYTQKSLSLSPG
Conbercept (Fc fusion), sequence (chain): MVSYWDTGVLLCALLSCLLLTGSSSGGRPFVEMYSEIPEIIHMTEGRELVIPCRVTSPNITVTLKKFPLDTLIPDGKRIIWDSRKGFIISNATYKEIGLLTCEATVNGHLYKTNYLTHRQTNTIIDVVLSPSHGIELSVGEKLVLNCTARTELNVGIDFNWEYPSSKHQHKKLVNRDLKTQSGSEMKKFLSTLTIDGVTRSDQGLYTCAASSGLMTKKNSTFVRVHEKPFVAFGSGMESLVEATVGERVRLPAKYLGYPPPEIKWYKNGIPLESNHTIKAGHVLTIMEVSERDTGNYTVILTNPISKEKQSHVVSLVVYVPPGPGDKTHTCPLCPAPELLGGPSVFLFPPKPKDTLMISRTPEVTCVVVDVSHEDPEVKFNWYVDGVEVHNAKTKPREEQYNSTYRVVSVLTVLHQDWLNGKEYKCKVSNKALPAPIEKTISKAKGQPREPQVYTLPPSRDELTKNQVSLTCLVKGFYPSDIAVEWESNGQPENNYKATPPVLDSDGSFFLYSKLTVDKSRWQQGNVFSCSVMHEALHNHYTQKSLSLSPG
recombinant human VEGF-A165 (human), sequence (P15692 other isoform, or with tags, fused parts or gaps limits assumed): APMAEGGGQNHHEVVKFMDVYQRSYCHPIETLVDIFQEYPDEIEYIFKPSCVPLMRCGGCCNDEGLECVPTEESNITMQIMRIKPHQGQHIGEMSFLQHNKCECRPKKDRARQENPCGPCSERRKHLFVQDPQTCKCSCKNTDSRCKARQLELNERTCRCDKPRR
recombinant human Ang-2 (human), sequence (O15123 19-496 limits assumed): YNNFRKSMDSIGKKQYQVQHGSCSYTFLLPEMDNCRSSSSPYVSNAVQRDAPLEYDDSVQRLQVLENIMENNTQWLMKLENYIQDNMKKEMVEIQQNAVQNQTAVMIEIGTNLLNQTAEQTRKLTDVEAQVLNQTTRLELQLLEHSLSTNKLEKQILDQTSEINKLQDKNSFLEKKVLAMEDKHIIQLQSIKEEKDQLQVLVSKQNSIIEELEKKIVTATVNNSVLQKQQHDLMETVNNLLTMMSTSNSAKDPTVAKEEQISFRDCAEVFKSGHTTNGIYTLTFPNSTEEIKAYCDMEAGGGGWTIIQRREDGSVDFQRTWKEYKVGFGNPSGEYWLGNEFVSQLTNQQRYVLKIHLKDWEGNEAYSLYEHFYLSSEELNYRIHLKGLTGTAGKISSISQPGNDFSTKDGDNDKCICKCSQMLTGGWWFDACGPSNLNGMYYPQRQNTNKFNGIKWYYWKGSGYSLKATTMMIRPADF
human IL-6R overexpressed on engineered CHO-S cells (human), sequence (P08887 20-468, change not shown): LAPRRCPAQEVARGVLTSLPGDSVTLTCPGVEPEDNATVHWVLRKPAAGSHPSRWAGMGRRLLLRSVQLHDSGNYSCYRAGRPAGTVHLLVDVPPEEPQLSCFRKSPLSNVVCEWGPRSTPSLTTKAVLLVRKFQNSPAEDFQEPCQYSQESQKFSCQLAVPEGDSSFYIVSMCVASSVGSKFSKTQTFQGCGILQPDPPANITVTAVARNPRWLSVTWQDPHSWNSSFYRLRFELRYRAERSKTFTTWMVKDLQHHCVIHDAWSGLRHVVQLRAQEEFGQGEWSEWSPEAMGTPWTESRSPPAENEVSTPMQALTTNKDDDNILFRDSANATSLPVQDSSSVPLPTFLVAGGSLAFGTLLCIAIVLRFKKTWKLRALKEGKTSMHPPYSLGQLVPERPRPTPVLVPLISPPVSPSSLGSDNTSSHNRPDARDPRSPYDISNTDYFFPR

Broadly, the pEC50 is the EC50 on a negative log10 scale, so that one unit is a factor of ten. As for Conbercept (Fc fusion), the pEC50 in assay [1] was 10.11; in assay [2] it was 10.05; in assay [3], 9.99; in assay [4] it was 11.05.
Usually pKd stands for the Kd on a negative log10 scale, so that one unit is a factor of ten. Turning to Aflibercept (Fc fusion), the pEC50 in [1] was 11.10; in assay [2] it was 10.92; in [4], 10.12. Besides, the pKd in [5] is 11.59; in assay [6] it was 9.83; in assay [7] it was 8.73; in assay [11], 11.46; in assay [12] it was 9.97; in assay [13] it was 8.86. Moreover, the IC50, inhibition of VEGF-A165-stimulated VEGFR-2 NF-AT luciferase reporter (HEK-293), luminescence in assay [8] was 0.595 nM; in [9] it was 0.326 nM; in assay [10], 0.606 nM.
Regarding Tie-2-Fc (Fc fusion), the pEC50 in assay [14] was 8.08.
For orientation: pIC50 means the IC50 on a negative log10 scale, so that one unit is a factor of ten. Lower therefore signals a large IC50. Substance Vobarilizumab-Fc (Fc fusion) gave a pIC50 in assay [15] of 9.28.
